Measured values taken from patent US20050227306A1, “Fluorescence polarization assay to detect protease cleavage” (priority 2003, published 2005).

Tests used:
Type in all cases: biochemical, E. coli
[1] = tested on: substrate 25-F (His6-tetraCys-X-MBP); assay: Fluorescence anisotropy proteolysis assay with substrate 25-F; conditions: initial rate by fluorescence anisotropy, normalized to the rate of the protease with its preferred cognate substrate
Description: (§1) All protease substrates were expressed in E. coli Rosetta pLacI Rare to provide compensation for rare codons (see Kirienko et al. (2004) Biochemistry (Mosc) 69:527-535; available commercially from Novagen, a wholly-owned subsidiary of EMD Biosciences, Inc., Madison, Wis.). The expression was done in 2-L PET bottles (Millard et al. (2003) Protein Expr. Purif. 29:311-320). The protein purification followed typical IMAC purification procedures (see Sambrook & Russell, supra) including elution in an imidazole gradient from 0-350 mM. After SDS-PAGE analysis, appropriate fractions were pooled and desalted into 20 mM phosphate, pH 7.5, containing 100 mM NaCl and 0.3 mM TCEP. […]
(§2) Protease assays were conducted using a combination of 20 μM unlabeled and 40 nM labeled protease substrates unless noted otherwise. […] This decreased the amount of time between mixing and measurement to less than three minutes and allowed the fluorescence anisotropy measured at the first time point to closely approximate the anisotropy of the intact fusion protein. […]
(§3) Fluorescence anisotropy was measured using a Tecan 384 Ultra plate spectrofluorimeter. Excitation was at 485 nm (25 nm bandpass) and emission was measured at 525 nm (20 nm bandpass). […] See J. Lakowicz, “Principles of fluorescence spectroscopy,” Kluwer Academic/Plenum Publishers, New York, 1999. […]

[2] = tested on: substrate 22-F (His6-tetraCys-X-MBP); assay: Fluorescence anisotropy proteolysis assay with substrate 22-F; conditions: initial rate by fluorescence anisotropy, normalized to the rate of the protease with its preferred cognate substrate
Description: as §1, §2, §3

[3] = tested on: substrate 26-F (His6-tetraCys-X-MBP); assay: Fluorescence anisotropy proteolysis assay with substrate 26-F; conditions: for Relative rate of reaction, substrate 26F: initial rate by fluorescence anisotropy, normalized to the rate of the protease with its preferred cognate substrate
Description: as §1, with “TCEP. Proteins were concentrated to a final concentration of 300-600 μM using centrifugal concentrators. Glycerol (50% v/v) was added to all protease substrates except 26-F and frozen at −20° C. The Arabidopsis targets At3g03410 (expressed from pVP14) and At3g16990 (expressed from pVP15) were flash frozen as drops in liquid nitrogen and stored at −80° C.” for “TCEP.”
as §2
(§4) Fluorescence anisotropy was measured using a Tecan 384 Ultra plate spectrofluorimeter. Excitation was at 485 nm (25 nm bandpass) and emission was measured at 525 nm (20 nm bandpass). […] The observed anisotropy is the sum of the anisotropy of the individual fluorescent components, or robs=Σfiri, where robs, is the observed anisotropy, fi is the fractional fluorescence intensity of component i, and ri is the anisotropy of component i. See J. Lakowicz, “Principles of fluorescence spectroscopy,” Kluwer Academic/Plenum Publishers, New York, 1999. […]

[4] = tested on: substrate 21-F (His6-tetraCys-X-MBP); assay: Fluorescence anisotropy proteolysis assay with substrate 21-F; conditions: initial rate by fluorescence anisotropy, normalized to the rate of the protease with its preferred cognate substrate
Description: as §1, §2, §3

[5] = tested on: substrate 23-F (His6-tetraCys-X-MBP); assay: Fluorescence anisotropy proteolysis assay with substrate 23-F; conditions: for Relative rate of reaction, substrate 23F: initial rate by fluorescence anisotropy, normalized to the rate of the protease with its preferred cognate substrate
Description: as §1, with “TCEP. Proteins were concentrated to a final concentration of 300-600 μM using centrifugal concentrators. Glycerol (50% v/v) was added to all protease substrates except 26-F and frozen at −20° C. The Arabidopsis targets At3g03410 (expressed from pVP14) and At3g16990 (expressed from pVP15) were flash frozen as drops in liquid nitrogen and stored at −80° C.” for “TCEP.”
as §2, §4

[6] = tested on: substrate 21-F (His6-tetraCys-X-MBP); assay: SDS-PAGE analysis of proteolysis of substrate 21-F; conditions: incubated 16 h (overnight)
Protocol: FIG. 22 is a photograph of a gel depicting SDS-PAGE analysis of protease substrates incubated with Factor Xa and TEV protease for 16 h. Lane M, molecular weight standards of 31 and 45 kDa. Lanes 1-5, Factor Xa with substrates 21-F, 22-F, 23-F, 24-F and 25-F, respectively. Lanes 6-10, trypsin with substrates 21-F, 22-F, 23-F, 24-F and 25-F, respectively. Lanes 11-14, TEV protease with substrates 21-F, 22-F, 23-F and 24-F, respectively.
The intensity of protein bands in SDS-PAGE gels was determined using Image J-brand software, version 1.30. This is a public domain program that can be obtained from the National Institutes of Health (Bethesda, Md.).
SDS-PAGE analysis with Coomassie staining was performed to further evaluate the predicted low rates of substrate dependent non-specific proteolysis.

[7] = tested on: substrate 24-F (His6-tetraCys-X-MBP); assay: Fluorescence anisotropy proteolysis assay with substrate 24-F; conditions: initial rate by fluorescence anisotropy, normalized to the rate of the protease with its preferred cognate substrate
Description: as §1, §2, §3

Molecule | Relative rate of reaction, substrate 25F [1] | Relative rate of reaction, substrate 22F [2] | Relative rate of reaction, substrate 26F [3] | Specific reaction rate ([3]; substrate 26-F, slope of initial rate versus protease concentration, errors two standard deviations) | Relative rate of reaction, substrate 21F [4] | Relative rate of reaction, substrate 23F [5] | Proteolysis of substrate 21-F by SDS-PAGE with Coomassie staining [6] | Relative rate of reaction, substrate 24F [7] | Specific reaction rate ([5]; substrate 23-F, per supplier's reported activity unit)
TEV: tobacco etch virus protease (protein) GESLFKGPRDYNPISSTICHLTNESDGHTTSLYGIGFGPFIITNKHLFRRNNGTLLVQSLHGVFKVKNTTTLQQHLIDGRDMIIIRMPKDFPPFPQKLKFREPQREERICLVTTNFQTKSMSSMVSDTSCTFPSSDGIFWKHWIQTKDGQCGSPLVSTRDGFIVGIHSASNFTNTNNYFTSVPKNFMELLTNQEAQQWVSGWRLNADSVLWGGHKVFMSKPEEPFQPVKEATQLMNELVYSQ | 0.0 | 0.0 | 1 | 17.3±0.7 moles substrate proteolyzed per mole of protease per hour | 0.01 | −0.02 | minor amount of proteolysis | −0.01 | –
Enterokinase: commercial protease used for removing fusion tags (protein, UniProt P98072 2-800; P98072 801-1035, looked up) Enteropeptidase non-catalytic …: GSKRSVPSRHRSLTTYEVMFAVLFVILVALCAGLIAVSWLSIQGSVKDAAFGKSHEARGTLKIISGATYNPHLQDKLSVDFKVLAFDIQQMIDDIFQSSNLKNEYKNSRVLQFENGSIIVIFDLLFDQWVSDKNVKEELIQGIEANKSSQLVTFHIDLNSIDITASLENFSTISPATTSEKLTTSIPLATPGNVSIECPPDSRLCADALKCIAIDLFCDGELNCPDGSDEDNKTCATACDGRFLLTGSSGSFEALHYPKPSNNTSAVCRWIIRVNQGLSIQLNFDYFNTYYADVLNIYEGMGSSKILRASLWSNNPGIIRIFSNQVTATFLIQSDESDYIGFKVTYTAFNSKELNNYEKINCNFEDGFCFWIQDLNDDNEWERTQGSTFPPSTGPTFDHTFGNESGFYISTPTGPGGRRERVGLLTLPLDPTPEQACLSFWYYMYGENVYKLSINISSDQNMEKTIFQKEGNYGQNWNYGQVTLNETVEFKVSFYGFKNQILSDIALDDISLTYGICNVSVYPEPTLVPTPPPELPTDCGGPHDLWEPNTTFTSINFPNSYPNQAFCIWNLNAQKGKNIQLHFQEFDLENIADVVEIRDGEGDDSLFLAVYTGPGPVNDVFSTTNRMTVLFITDNMLAKQGFKANFTTGYGLGIPEPCKEDNFQCKDGECIPLVNLCDGFPHCKDGSDEAHCVRLFNGTTDSSGLVQFRIQSIWHVACAENWTTQISDDVCQLLGLGTGNSSVPTFSTGGGPYVNLNTAPNGSLILTPSQQCLEDSLILLQCNYKSCGKKLVTQEVSPK Enteropeptidase catalytic …: IVGGSDSREGAWPWVVALYFDDQQVCGASLVSRDWLVSAAHCVYGRNMEPSKWKAVLGLHMASNLTSPQIETRLIDQIVINPHYNKRRKNNDIAMMHLEMKVNYTDYIQPICLPEENQVFPPGRICSIAGWGALIYQGSTADVLQEADVPLLSNEKCQQQMPEYNITENMVCAGYEAGGVDSCQGDSGGPLMCQENNRWLLAGVTSFGYQCALPNRPGVYARVPRFTEWIQSFLH | – | 1.3 | 1 | – | 0.5 | 1 | – | 0.2 | 0.130±0.007 nmole substrate proteolyzed per unit enzyme per hour
